Assay results published in US20210309978A1, “POLYNUCLEOTIDE SEQUENCE ENCODING A LOCAL SOURCED NOVEL ESTERASE” (ISTANBUL TEKNIK UNIVERSITESI, priority 2018, published 2021).
Several values for one entry are separate records, joined by “and”; a condition that tells them apart may be missing. Equal entries are not always repeated.

Assays:
[1] = Effect of temperature on enzyme activity (standard pNP ester activity test); type: biochemical, microflora of Ac1göl (Aci Lake)
Description: (§1) 6. Standard activity test: Activity has been measured based on the pNP measurement that is obtained by the hydrolysis of the paranitfrophenol (pNP) esters by the enzyme (Winkler and Stuckmann, 1979). The final concentration of the enzyme and substrate have been 1 μM and 1 mM respectively and absorbance measurements have been taken at 410 nm. The activity has been calculated by means of the below formula and one unit of activity has been defined as the enzyme amount which produces 1 μmol product in 1 minute.
(§2) Activity (U/L)=[(ΔAbs/t)/(ε*d)]*106*Vt/Vs • ΔAbs=Absorbance change; t=time (minute); ε=extinction coefficient (M−1 cm−1); d=light path (cm); Vt=total reaction volume; Vs=enzyme volume used in reaction.
(§3) The reaction has been carried out under different temperatures (5° C.-70° C.) in order to determine the optimum temperature in which the enzyme works efficiently, and the activity has been measured. In order to determine the thermal stability of the enzyme, the enzyme has been incubated for 20 minutes between 25° C.-80° C. temperature and the remaining activity has been measured according to standard tests.

[2] = type: biochemical, microflora of Ac1göl (Aci Lake)
Description: as §1, §2, §3

[3] = Effect of pH on enzyme activity; type: biochemical, microflora of Ac1göl (Aci Lake)
Description: as §1, §2
(§4) 8. Measuring the activity and stability of the enzyme under different conditions: Reactions have been carried out in buffer solutions (50 mM citrate/phosphate buffer, pH 6; 50 mM Tris-HCl buffer, pH 7, 8 and 8.5; 50 mM glycine-NaOH buffer, pH 9, 9.5 and 10) having different pH values in order to determine the optimum pH value in which the enzyme works. Moreover, in order to measure the pH stability of the enzyme, the enzyme has been incubated for 24 hours before reaction in these buffer solutions and the activity value remaining at the end of the incubation has been calculated.

[4] = type: biochemical, microflora of Ac1göl (Aci Lake); remark: listed apart in the source
Description: as §1, §2, §4

B1: enzyme: novel esterase (SEQ ID NO: 2, 260 amino acids) obtained by metagenomic method from the microflora of Ac1göl (protein)
chain: MTVDLNHLDTGGEGIPLVVIHGLLGSADNWRSHVKQWQQQCRVVAVDLRNHGRSPHADGMSYAAMAADLEALLDRLGIERAHLLGHSMGGKVAISVARLHPQRVASLIVADIAPQAYGHDHDAVFAGLRRVEQGQPGNRREADALLAEHVEERAVRLFLATNLERDDDGILRLRIGLDEIEGDYDAIMQAPAGEGSYDGPVLVLRGDRSPYVTDAMLPRLHQVLPQAQLVTLENAGHWLHAEQPEAFQAAVNDFLASLEA
modifications: Metagenomic Sequence
**Q.** Which results are given for B1?
**A.** temperature of best activity [1]: 30 °C; Effect of temperature on activity, Activity (%) ([1]; reaction at 5 ° C.): 47% and 46.6 ± 6.1%; Effect of temperature on activity, Activity (%) ([1]; reaction at 10 ° C.): 53.8 ± 7.4%; Effect of temperature on activity, Activity (%) ([1]; reaction at 15 ° C.): 63% and 63.1 ± 5.1%; Effect of temperature on activity, Activity (%) ([1]; reaction at 20 ° C.): 76.9 ± 4.4%; Effect of temperature on activity, Activity (%) ([1]; reaction at 25 ° C.): 93.1 ± 6.3%; Effect of temperature on activity, Activity (%) ([1]; reaction at 30 ° C.): 100 ± 4.8%; Effect of temperature on activity, Activity (%) ([1]; reaction at 35 ° C.): 94.4 ± 1.5%; Effect of temperature on activity, Activity (%) ([1]; reaction at 40 ° C.): 82.4 ± 2.8%; Effect of temperature on activity, Activity (%) ([1]; reaction at 45 ° C.): 22.5 ± 0.8%; Effect of temperature on activity, Activity (%) ([1]; reaction at 50 ° C.): 17.7 ± 0.3%; Effect of temperature on activity, Activity (%) ([1]; reaction at 55 ° C.): 14.4 ± 4.5%; Effect of temperature on activity, Activity (%) ([1]; reaction at 60 ° C.): 12.9 ± 2.9%; Effect of temperature on activity, Activity (%) ([1]; reaction at 65 ° C.): 11.1 ± 4.2%; Effect of temperature on activity, Activity (%) ([1]; reaction at 70 ° C.): 8.2 ± 0.8%; temperature up to which the enzyme maintained the stability [2]: up to 55 °C; pH value at which the enzyme worked best [3]: 9 pH; The effect of pH on activity, Activity (%) ([3]; pH 6): 10.3 ± 4.1%; The effect of pH on activity, Activity (%) ([3]; pH 7): 68.8 ± 8.2%; The effect of pH on activity, Activity (%) ([3]; pH 8): 77.1 ± 6.8%; The effect of pH on activity, Activity (%) ([3]; pH 8.5): 84 ± 5.2%; The effect of pH on activity, Activity (%) ([3]; pH 9): 100 ± 1.3%; The effect of pH on activity, Activity (%) ([3]; pH 9.5): 84.9 ± 1.5%; The effect of pH on activity, Activity (%) ([3]; pH 10): 20 ± 8.1%; pH up to which the enzyme maintained its stability [4]: ≤ 10 pH
